Here are results for 94 variants from the supplement of paper PMC10567573.

First the molecules themselves.
B1: KIAA0774 (parent)
chain: FEDEVKRLGWQQQAELQELEERLQ
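Further: lentivirally expressed fusions sorted by FACS into six bins by GFP to DsRed ratio, PSI derived from sequencing read proportions per bin multiplied by bin number.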

Variants of B1 are the subject of this data set. As to the kind of experiment: protein stability index of a GFP-peptide fusion (GPS, HEK-293T) (PSI 1-6); higher = more stable. The conditions noted are these: c terminus: a fixed tail appended.
As for FEDEVKRLGSQQQAELQELEERLQ [W10S], the protein stability index amounted to 4.84. As for FEDEVKRLGYQQQAELQELEERLQ [W10Y], the protein stability index was determined as 4.86. Consider FEDEVKRLGTQQQAELQELEERLQ [W10T], for which the protein stability index was 5.13. As to FEDEVKRLGQQQQAELQELEERLQ [W10Q], the protein stability index stood at 5.71.

As for FEDEVKRLGPQQQAELQELEERLQ [W10P], the protein stability index is 5.11. As for FEDEVKRLGRQQQAELQELEERLQ [W10R], the protein stability index was 5.5.

Take FEDEVKRLGVQQQAELQELEERLQ [W10V]: the protein stability index turned out to be 4.69.

For the variant FEDEVKRLGWQQQANLQELEERLQ [E15N], the protein stability index is 4.51. Consider FEDEVKRLGWQQQAILQELEERLQ [E15I], for which the protein stability index was determined as 2.64. Turning to FEDEVKRLGWQQQADLQELEERLQ [E15D], the protein stability index was 4.46.

Regarding FEDEVKRLGWQQQAPLQELEERLQ [E15P], the protein stability index stood at 3.71.

With FEDEVKRLGWQQQAKLQELEERLQ [E15K], the protein stability index was 3.2. Consider FEDEVKRLGWQQQACLQELEERLQ [E15C], for which the protein stability index came out at 3.39. Next, FEDEVKRLGWQQQAHLQELEERLQ [E15H]: 3.53; FEDEVKRLGWQQQALLQELEERLQ [E15L]: 3.13; FEDEVKRLGWQQQAFLQELEERLQ [E15F]: 2.42. FEDEVKRLGWQQQAALQELEERLQ [E15A]: the protein stability index is 2.74.

As for FEDEVKRLGWQQQAMLQELEERLQ [E15M], the protein stability index was found to be 3.32. FEDEVKRLGWQQQAGLQELEERLQ [E15G]: the protein stability index came out at 3.85. As to FEDEVKRLGWQQYAELQELEERLQ [Q13Y], the protein stability index stood at 3.58. For the variant FEDEVKRLGWQQFAELQELEERLQ [Q13F], the protein stability index turned out to be 4.42. On to FEDEVKRLGWQQTAELQELEERLQ [Q13T], for which the protein stability index is 3.74. Regarding FEDEVKRLGWQQNAELQELEERLQ [Q13N], the protein stability index was found to be 5.2. Consider FEDEVKRLGWQQKAELQELEERLQ [Q13K], for which the protein stability index amounted to 3.77.

Regarding FEDEVKRLGWQQVAELQELEERLQ [Q13V], the protein stability index amounted to 3.86. Next, FEDEVKRLGWQQDAELQELEERLQ [Q13D]: 4.76; FEDEVKRLGWQQAAELQELEERLQ [Q13A]: 4.31; FEDEVKRLGWQQCAELQELEERLQ [Q13C]: 4.83. Next, FEDEVKRLGWQQRAELQELEERLQ [Q13R]: 2.99. On to FEDEVKRLGWQQIAELQELEERLQ [Q13I], for which the protein stability index amounted to 3.44. Take FEDEVKRLGWQQLAELQELEERLQ [Q13L]: the protein stability index was 3.5. For the variant FEDEVKRLGWQQWAELQELEERLQ [Q13W], the protein stability index was 3.67. FEDEVKRLGWQQSAELQELEERLQ [Q13S]: the protein stability index stood at 5.01. For the variant FEDEVKRLGWQQHAELQELEERLQ [Q13H], the protein stability index worked out at 4.39.

As to FEDEVKRLGWQQPAELQELEERLQ [Q13P], the protein stability index worked out at 5.11. FEDEVKRLGWQQEAELQELEERLQ [Q13E]: the protein stability index turned out to be 5.03. Regarding FEDEVKRLGWQQGAELQELEERLQ [Q13G], the protein stability index turned out to be 5.35. FEDEVKRLGWQQMAELQELEERLQ [Q13M]: the protein stability index was found to be 2.6. With FEDEVKRLGWQQQTELQELEERLQ [A14T], the protein stability index turned out to be 2.53. FEDEVKRLGWQQQMELQELEERLQ [A14M]: the protein stability index is 4.37.

Turning to FEDEVKRLGWQQQCELQELEERLQ [A14C], the protein stability index turned out to be 3. FEDEVKRLGWQQQWELQELEERLQ [A14W]: the protein stability index was found to be 2.53. In the case of FEDEVKRLGWQQQSELQELEERLQ [A14S], the protein stability index worked out at 4.44. Next, FEDEVKRLGWQQQRELQELEERLQ [A14R]: 4.7. With FEDEVKRLGWQQQKELQELEERLQ [A14K], the protein stability index was determined as 5.32. Take FEDEVKRLGWQQQPELQELEERLQ [A14P]: the protein stability index was 5.4.

FEDEVKRLGWQQQIELQELEERLQ [A14I]: the protein stability index was 1.73. Next, FEDEVKRLGWQQQQELQELEERLQ [A14Q]: 4.61; FEDEVKRLGWQQQEELQELEERLQ [A14E]: 5.64; FEDEVKRLGWQQQGELQELEERLQ [A14G]: 5.26. Next, FEDEVKRLGWQQQFELQELEERLQ [A14F]: 2.63. On to FEDEVKRLGWQQQYELQELEERLQ [A14Y], for which the protein stability index is 2.29.

With FEDEVKRLGWQQQLELQELEERLQ [A14L], the protein stability index came out at 1.85. Regarding FEDEVKRLGWQQQHELQELEERLQ [A14H], the protein stability index worked out at 4.27. As to FEDEVKRLGWQQQNELQELEERLQ [A14N], the protein stability index was determined as 4.64. As to FEDEVKRLGWQQQDELQELEERLQ [A14D], the protein stability index amounted to 5.2. Next, FEDEVKRLGWAQQAELQELEERLQ [Q11A]: 3.64; FEDEVKRLGWTQQAELQELEERLQ [Q11T]: 3.3; FEDEVKRLGWCQQAELQELEERLQ [Q11C]: 3.86. FEDEVKRLGWLQQAELQELEERLQ [Q11L]: the protein stability index was determined as 4.46. On to FEDEVKRLGWPQQAELQELEERLQ [Q11P], for which the protein stability index worked out at 4.57. FEDEVKRLGWEQQAELQELEERLQ [Q11E]: the protein stability index came out at 4.83. As for FEDEVKRLGWNQQAELQELEERLQ [Q11N], the protein stability index is 4.52.

Regarding FEDEVKRLGWSQQAELQELEERLQ [Q11S], the protein stability index was determined as 4.4. Next, FEDEVKRLGWKQQAELQELEERLQ [Q11K]: 4.41; FEDEVKRLGWHQQAELQELEERLQ [Q11H]: 5.08. Consider FEDEVKRLGWDQQAELQELEERLQ [Q11D], for which the protein stability index was determined as 5.16. Next, FEDEVKRLGWRQQAELQELEERLQ [Q11R]: 4.44; FEDEVKRLGWWQQAELQELEERLQ [Q11W]: 4.16; FEDEVKRLGWMQQAELQELEERLQ [Q11M]: 3.79. Next, FEDEVKRLGWGQQAELQELEERLQ [Q11G]: 4.84. Regarding FEDEVKRLGWVQQAELQELEERLQ [Q11V], the protein stability index was 1.72. As to FEDEVKRLGWIQQAELQELEERLQ [Q11I], the protein stability index was 3.88. On to FEDEVKRLGWFQQAELQELEERLQ [Q11F], for which the protein stability index worked out at 3.73. In the case of FEDEVKRLGWYQQAELQELEERLQ [Q11Y], the protein stability index amounted to 4.76. As for FEDEVKRLGWQDQAELQELEERLQ [Q12D], the protein stability index is 4.85. With FEDEVKRLGWQMQAELQELEERLQ [Q12M], the protein stability index amounted to 3.13. For FEDEVKRLGWQPQAELQELEERLQ [Q12P], the protein stability index stood at 5.22. With FEDEVKRLGWQRQAELQELEERLQ [Q12R], the protein stability index was determined as 3.

On to FEDEVKRLGWQEQAELQELEERLQ [Q12E], for which the protein stability index came out at 4.09.

As to FEDEVKRLGWQIQAELQELEERLQ [Q12I], the protein stability index came to 2.45.

Turning to FEDEVKRLGWQYQAELQELEERLQ [Q12Y], the protein stability index amounted to 2.31. With FEDEVKRLGWQFQAELQELEERLQ [Q12F], the protein stability index is 2.78. As for FEDEVKRLGWQLQAELQELEERLQ [Q12L], the protein stability index was determined as 2.85. On to FEDEVKRLGWQNQAELQELEERLQ [Q12N], for which the protein stability index stood at 4.8. As to FEDEVKRLGWQSQAELQELEERLQ [Q12S], the protein stability index worked out at 5.12. As to FEDEVKRLGWQCQAELQELEERLQ [Q12C], the protein stability index was 2.14. Next, FEDEVKRLGWQWQAELQELEERLQ [Q12W]: 2.9. Consider FEDEVKRLGWQVQAELQELEERLQ [Q12V], for which the protein stability index came to 2.83.

With FEDEVKRLGWQHQAELQELEERLQ [Q12H], the protein stability index amounted to 3.1. As to FEDEVKRLGWQAQAELQELEERLQ [Q12A], the protein stability index worked out at 3.83. Next, FEDEVKRLGWQTQAELQELEERLQ [Q12T]: 3.45. As to FEDEVKRLGWQGQAELQELEERLQ [Q12G], the protein stability index was found to be 4.14. Turning to FEDEVKRLGWQKQAELQELEERLQ [Q12K], the protein stability index stood at 4.03.
